Potency (activity data for one molecule are collected here from US20170281788A1.

This assay has as its target insulin receptor (IR-B), P06213. Description: cell-based or functional assay.

B1: GLP-1/insulin fusion GLP-DP8 (ligand)
chain: HAEGTFTSDVSSYLEEQAAREFIAWLVRGRGGPEHLCGAHLVDALYLVCGDRGFYFNDRGAGSSSRRGIVDECCHRSCDLRRLENYCN
In the case of B1, the potency (activity at the insulin subtype B receptor) was 9.9.
